Data published in doi:10.1101/2023.05.16.540868 (bioRxiv, 2023).
Where two headings read alike, the source gives them in different places.

How the values were obtained:
mass photometry [1] = molecular target: the molecule itself; test: mass photometry
mass photometry [2] = molecular target: the molecule itself; test: mass photometry; remark: listed apart in the source

Row | Protein | stoichiometry N (mass photometry [1]) | stoichiometry N (mass photometry [2])
1 | SPD-5(541-677) (domain or fragment, C. elegans, UniProt P91349 541-677, looked up) SQSHIPILHDMQQILDSSAMFLEGQHDVAVNVEQMQEKMSQIREALARLFERLKSSAALFEEILERMGSSDPNADKIKKMKLAFETSINDKLNVSAILEAAEKDLHNMSLNFSILEKSIVSQAAEASRRFTIAPDAE | 2 | –
2 | SPD-5(541-677) R592K (domain or fragment, C. elegans, UniProt P91349 541-677, looked up) SQSHIPILHDMQQILDSSAMFLEGQHDVAVNVEQMQEKMSQIREALARLFEKLKSSAALFEEILERMGSSDPNADKIKKMKLAFETSINDKLNVSAILEAAEKDLHNMSLNFSILEKSIVSQAAEASRRFTIAPDAE | 2 | –
3 | SPD-5(541-677) phosphorylated by PLK-1(CA) (domain or fragment, C. elegans, UniProt P91349 541-677, looked up, phosphorylated by PLK-1(CA) (verified by gel migration shift and MS); sites not printed for this fragment) SQSHIPILHDMQQILDSSAMFLEGQHDVAVNVEQMQEKMSQIREALARLFERLKSSAALFEEILERMGSSDPNADKIKKMKLAFETSINDKLNVSAILEAAEKDLHNMSLNFSILEKSIVSQAAEASRRFTIAPDAE | – | 2
